No end group written: not given here.
Legend:
[1] = molecular target: Recombinant DPP-IV enzyme (Homo sapiens, UniProt P27487); assay: DPP-IV enzyme resistance (GCGR bioactivity after DPP-IV treatment); format: in vitro ADME; conditions: 5 μM protein, 10 nM recombinant DPP-IV, 37° C., 24 hours; GCGR bioactivity after/before treatment
Protocol: The purified fusion protein was dissolved in 10 mM of HEPES buffer (containing 0.05 mg/ml BSA) to a final concentration of 5 μM. Recombinant DPP-IV enzyme (final concentration of 10 nM) was added and incubated at 37° C. for 24 hours before detection of GCGR bioactivity. Activity retention rate=(activity after DPP-IV enzyme treatment/activity before DPP-IV enzyme treatment)×100%.

[2] = in vivo; cited from earlier work

Recombinant DPP-IV enzyme, sequence (P27487 whole entry, species assumed, the tested form may be a part): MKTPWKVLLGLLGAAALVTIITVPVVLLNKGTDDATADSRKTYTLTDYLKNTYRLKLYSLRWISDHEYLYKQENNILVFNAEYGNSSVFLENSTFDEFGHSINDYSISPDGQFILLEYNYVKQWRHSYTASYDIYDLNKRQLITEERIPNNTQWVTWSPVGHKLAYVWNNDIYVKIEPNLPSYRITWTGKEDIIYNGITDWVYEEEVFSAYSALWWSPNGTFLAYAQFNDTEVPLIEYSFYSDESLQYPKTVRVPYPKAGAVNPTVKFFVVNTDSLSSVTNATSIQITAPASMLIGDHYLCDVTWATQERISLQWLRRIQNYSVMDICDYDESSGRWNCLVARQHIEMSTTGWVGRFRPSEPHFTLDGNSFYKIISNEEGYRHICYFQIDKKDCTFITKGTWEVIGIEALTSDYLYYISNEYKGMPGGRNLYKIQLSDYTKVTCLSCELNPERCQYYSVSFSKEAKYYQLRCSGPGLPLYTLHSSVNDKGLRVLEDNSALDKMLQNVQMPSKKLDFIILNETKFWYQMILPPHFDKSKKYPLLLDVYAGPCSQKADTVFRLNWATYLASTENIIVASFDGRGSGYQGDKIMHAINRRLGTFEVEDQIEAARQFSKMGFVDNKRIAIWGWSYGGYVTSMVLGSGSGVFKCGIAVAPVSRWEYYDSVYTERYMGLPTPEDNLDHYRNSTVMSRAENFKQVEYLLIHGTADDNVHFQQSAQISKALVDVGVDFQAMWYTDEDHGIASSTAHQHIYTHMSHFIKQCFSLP

Substance	Activity preservation rate (%) [1] [%]	Anti-drug antibody positive rate [2] [%]
H-D-Ser-QGTFTSDYSKYLDSQAAQDFVQWLMNGGPSSGAPPPS (not fully specified (N-terminus)) [GDSerGS, control]	99.2	
Taspoglutide		49

Reference: patent US20220340635A1, “FUSION PROTEIN FOR TREATMENT OF METABOLIC DISEASE” (ZHEJIANG DOER BIOLOGICS CORPORATION, priority 2019, published 2022)
